Test results published in US20200353049A1.
Several values for one entry are separate records, joined by “and”; a condition that tells them apart may be missing. Equal values may be shown once.

What was measured:
[1] = molecular target: IL-22R1a extracellular domain (ECD) (UniProt Q8N6P7); assay: binding ELISA on plate-coated IL-22R1a ECD, relative to Reference Standard (100%); T=0
[2] = molecular target: IL-22R1a extracellular domain (ECD) (UniProt Q8N6P7); assay: as above; remark: listed apart in the source
[3] = molecular target: IL-22R1a extracellular domain (ECD) (UniProt Q8N6P7); assay: potency assay (binding ELISA on plate-coated IL-22R1a ECD), relative to reference standard (100%); T=0
[4] = molecular target: IL-22R1a extracellular domain (ECD) (UniProt Q8N6P7); assay: binding ELISA on plate-coated IL-22R1a ECD, relative to Reference Standard (100%); stored 5 C, 3 months
[5] = molecular target: IL-22R1a extracellular domain (ECD) (UniProt Q8N6P7); assay: binding ELISA on plate-coated IL-22R1a ECD, relative to Reference Standard (100%); stored -20 C, 3 months
[6] = molecular target: IL-22R1a extracellular domain (ECD) (UniProt Q8N6P7); assay: as above; remark: listed apart in the source
[7] = molecular target: IL-22R1a extracellular domain (ECD) (UniProt Q8N6P7); assay: binding ELISA on plate-coated IL-22R1a ECD, relative to Reference Standard (100%); stored -20 C, 12 months
[8] = molecular target: IL-22R1a extracellular domain (ECD) (UniProt Q8N6P7); assay: binding ELISA on plate-coated IL-22R1a ECD, relative to Reference Standard (100%); stored -20 C, 18 months
[9] = molecular target: IL-22R1a extracellular domain (ECD) (UniProt Q8N6P7); assay: binding ELISA on plate-coated IL-22R1a ECD, relative to Reference Standard (100%); stored -20 C, 30 months
[10] = molecular target: IL-22R1a extracellular domain (ECD) (UniProt Q8N6P7); assay: binding ELISA on plate-coated IL-22R1a ECD, relative to Reference Standard (100%); stored -20 C, 12 months; remark: listed apart in the source
[11] = molecular target: IL-22R1a extracellular domain (ECD) (UniProt Q8N6P7); assay: binding ELISA on plate-coated IL-22R1a ECD, relative to Reference Standard (100%); stored -20 C, 18 months; remark: listed apart in the source
[12] = molecular target: IL-22R1a extracellular domain (ECD) (UniProt Q8N6P7); assay: binding ELISA on plate-coated IL-22R1a ECD, relative to Reference Standard (100%); stored -20 C, 48 months
[13] = molecular target: IL-22R1a extracellular domain (ECD) (UniProt Q8N6P7); assay: potency assay (binding ELISA on plate-coated IL-22R1a ECD), relative to reference standard; 40 C stress, day 0
[14] = molecular target: IL-22R1a extracellular domain (ECD) (UniProt Q8N6P7); assay: potency assay (binding ELISA on plate-coated IL-22R1a ECD), relative to reference standard; 40 C stress, day 10
[15] = molecular target: IL-22R1a extracellular domain (ECD) (UniProt Q8N6P7); assay: potency assay (binding ELISA on plate-coated IL-22R1a ECD), relative to reference standard; 40 C stress, day 14
[16] = molecular target: IL-22R1a extracellular domain (ECD) (UniProt Q8N6P7); assay: binding ELISA on plate-coated IL-22R1a ECD, relative to Reference Standard; pH 7.0 formulation stored 4 weeks at 30 C
[17] = molecular target: IL-22R1a extracellular domain (ECD) (UniProt Q8N6P7); assay: potency assay (binding ELISA on plate-coated IL-22R1a ECD), relative to reference standard (100%); stored 25 C, 1 month
[18] = molecular target: IL-22R1a extracellular domain (ECD) (UniProt Q8N6P7); assay: potency assay (binding ELISA on plate-coated IL-22R1a ECD), relative to reference standard (100%); stored 5 C, 6 months
[19] = molecular target: IL-22R1a extracellular domain (ECD) (UniProt Q8N6P7); assay: potency assay (binding ELISA on plate-coated IL-22R1a ECD), relative to reference standard (100%); stored 5 C, 36 months
[20] = molecular target: IL-22R1a extracellular domain (ECD) (UniProt Q8N6P7); assay: potency assay (binding ELISA on plate-coated IL-22R1a ECD), relative to reference standard (100%); stored 5 C, 42 months
[21] = molecular target: IL-22R1a extracellular domain (ECD) (UniProt Q8N6P7); assay: potency assay (binding ELISA on plate-coated IL-22R1a ECD), relative to reference standard (100%); stored 25 C, 3 months
[22] = molecular target: IL-22R1a extracellular domain (ECD) (UniProt Q8N6P7); assay: potency assay (binding ELISA on plate-coated IL-22R1a ECD), relative to reference standard (100%); stored 5 C, 24 months
[23] = molecular target: IL-22R1a extracellular domain (ECD) (UniProt Q8N6P7); assay: potency assay (binding ELISA on plate-coated IL-22R1a ECD), relative to reference standard (100%); stored 5 C, 42 months; remark: listed apart in the source
[24] = molecular target: IL-22R1a extracellular domain (ECD) (UniProt Q8N6P7); assay: potency assay (binding ELISA on plate-coated IL-22R1a ECD), relative to reference standard (100%); stored 5 C, 48 months
[25] = molecular target: IL-22R1a extracellular domain (ECD) (UniProt Q8N6P7); assay: potency assay (binding ELISA on plate-coated IL-22R1a ECD), relative to reference standard (100%); stored 5 C, 12 months (time printed as 180/12)
[26] = molecular target: IL-22R1a extracellular domain (ECD) (UniProt Q8N6P7); assay: potency assay (binding ELISA on plate-coated IL-22R1a ECD); change after 2 weeks at 40 C; this end matches Clinical Batch 3 in Table 26 (85 to 57)
[27] = molecular target: IL-22R1a extracellular domain (ECD) (UniProt Q8N6P7); assay: binding ELISA on plate-coated IL-22R1a ECD, relative to Reference Standard; 10 mM sodium phosphate, 240 mM sucrose, 0.02% PS20, pH 7.0; control sample

UniProt Q8N6P7, sequence (Q8N6P7 16-228 limits assumed): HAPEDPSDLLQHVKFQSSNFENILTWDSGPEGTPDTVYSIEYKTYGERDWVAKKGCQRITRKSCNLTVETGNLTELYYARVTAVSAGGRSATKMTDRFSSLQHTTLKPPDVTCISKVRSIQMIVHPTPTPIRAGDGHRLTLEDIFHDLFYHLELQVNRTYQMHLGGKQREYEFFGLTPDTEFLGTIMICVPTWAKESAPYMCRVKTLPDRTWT

- Potency by Binding Assay (% relative potency) (% relative potency) [1]: 71
- Potency by Binding Assay (% relative potency) (% relative potency) [2]: 108
- Potency (% relative potency) (% relative potency) [3]: 73
- Potency by Binding Assay (% relative potency) (% relative potency) [4]: 105
- Potency by Binding Assay (% relative potency) (% relative potency) [5]: 72
- Potency by Binding Assay (% relative potency) (% relative potency) [6]: 104
- Potency by Binding Assay (% relative potency) (% relative potency) [7]: 69
- Potency by Binding Assay (% relative potency) (% relative potency) [8]: 70
- Potency by Binding Assay (% relative potency) (% relative potency) [9]: 70
- Potency by Binding Assay (% relative potency) (% relative potency) [10]: 91
- Potency by Binding Assay (% relative potency) (% relative potency) [11]: 101
- Potency by Binding Assay (% relative potency) (% relative potency) [12]: 93
- Potency (% relative potency) (% relative potency) [13]: 104 and 85
- Potency (% relative potency) (% relative potency) [14]: 84 and 65
- Potency (% relative potency) (% relative potency) [15]: 71 and 57
- Estimated % relative potency (n = 2) (% relative potency) [16]: 79
- Potency (% relative potency) (% relative potency) [17]: 68
- Potency (% relative potency) (% relative potency) [18]: 64
- Potency (% relative potency) (% relative potency) [19]: 67
- Potency (% relative potency) (% relative potency) [20]: 59
- Potency (% relative potency) (% relative potency) [21]: 95
- Potency (% relative potency) (% relative potency) [22]: 83
- Potency (% relative potency) (% relative potency) [23]: 87
- Potency (% relative potency) (% relative potency) [24]: 91
- Potency (% relative potency) (% relative potency) [25]: 86
- decrease in % relative potency (% relative potency) [26]: 28
- Estimated % relative potency (n = 2) (% relative potency) [27]: 89
Substance: IL-22 Fc fusion protein
